In the supplement of paper PMC10567573:
± gives the standard deviation.

Assay: protein stability index of a GFP-peptide fusion (GPS, HEK-293T) (PSI 1-6); higher = more stable
[1] = treatment: DMSO, c terminus: a fixed tail appended
[2] = treatment: MLN4924 1 uM, 8 h, c terminus: a fixed tail appended
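Further: 24-mer peptide tiles fused after GFP, lentivirally expressed, FACS-sorted into six equal bins by GFP/DsRed ratio, decoded by Illumina sequencing, PSI is the read-weighted mean bin number.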

Row | Sequence | protein stability index [1] | protein stability index [2] | protein stability index (treatment: DMSO, c terminus: native) | protein stability index (treatment: MLN4924 1 uM, 8 h, c terminus: native)
1 | LLASLTGGVLIDRYGRRTAIILSS [SLC2A12] | 2.86 ± 0.5 | 3.06 ± 0.87 |  | 
2 | FLSGLAFRVFHCTQYVRHSSDPFY [TPH1] | 2.67 ± 0.27 | 2.99 ± 0.4 |  | 
3 | VIVQLHKLRHLDISRDRLSSYYKF [ZER1] | 2.76 ± 0.63 | 2.56 ± 0.45 |  | 
4 | RLHLAFKRQVPREQAQAYAERLGV [RAB40A] | 2.76 ± 0.16 | 3.12 ± 0.18 |  | 
5 | LRFCHNNKKAKRYLLHGLECVVAM [EIF5] | 2.14 ± 0.33 | 2.23 ± 0.6 |  | 
6 | GSRPACQLQVPTLRQQCAQVLRNN [ELOA2] | 4.43 ± 0.14 | 4.51 ± 0.3 |  | 
7 | VCNINKGCGYGCQLHHVVYCFMIA [FUT8] | 2.89 ± 0.42 | 3.2 ± 0.68 |  | 
8 | DGVITASEDRTIRVWLKRDSGQYW [WDFY1] | 2.65 ± 0.65 | 2.76 ± 0.18 |  | 
9 | GNAKGKILVLKTDSQDLVASFRVT [RBBP5] | 2.17 ± 0.19 | 2.11 ± 0.28 |  | 
10 | ASVSDEELKRRVAEELALEQAKKE [CHCHD3] | 5.76 ± 0.25 | 5.45 ± 0.49 |  | 
11 | PYSFIEFDTFIQKTKKLYIDSRAR [SEC22B] | 2.38 ± 0.12 | 2.41 ± 0.25 |  | 
12 | TAPLYKDEKEQLIIPQVPLFNILA [USP39] | 2.15 ± 0.13 | 2.09 ± 0.39 |  | 
13 | CQEQIEALLESSLRQAQQNMDPKA [CCND1] | 4.85 ± 0.079 | 4.63 ± 0.19 |  | 
14 | FQEWEAHRNLSQLPNFAFSVPLAY [TCF25] | 2.73 ± 0.58 | 2.4 ± 0.25 |  | 
15 | TKIRALQGSLENMSKLLKRQNDIL [CD207] | 2.4 ± 0.16 | 2.57 ± 0.21 |  | 
16 | NSVNDQTKILVVNAAYFVGKWMKK [SERPINB5] | 2.3 ± 0.26 | 2.48 ± 0.5 |  | 
17 | ILTADLYSLFVGLFLFGYKFSGLY [SLC35F2] | 2.45 ± 0.49 | 3.27 ± 0.19 |  | 
18 | TDDDGQAPEAKDGSSFSGRVFRVT [APMAP] | 4.94 ± 0.24 | 4.74 ± 0.23 |  | 
19 | VRYNAEKKKVGNYYTTPIYRFRMK [YJU2B] | 2.57 ± 0.17 | 2.86 ± 0.35 |  | 
20 | QLRCEMEQQNQEYKILLDVKTRLE [KRT17] | 3.63 ± 0.28 | 3.83 ± 0.098 |  | 
21 | VTIPAGATHILVRQQGNPGHRSIY [ADAMTS4] | 2.51 ± 0.12 | 2.32 ± 0.52 |  | 
22 | LASLPLKADTKGFCNISLFEDLPL [PLAGL1] | 2.33 ± 0.19 | 2.43 ± 0.1 |  | 
23 | PISEKAKDLILRFCIDSENRIGNS [STK38L] | 2.04 ± 0.47 | 2.05 ± 0.41 |  | 

Row | Sequence | protein stability index [1] | protein stability index [2] | protein stability index (treatment: DMSO, c terminus: native) | protein stability index (treatment: MLN4924 1 uM, 8 h, c terminus: native)
24 | EPESKNAPHSQGEYDVYSTFQSHE [PPP2R2C] | 5.19 ± 0.15 | 5.19 ± 0.15 |  | 
25 | QQLVSFSESGSLGNSSGSDVTSLS [ISL2] | 4.79 ± 0.19 | 4.72 ± 0.37 |  | 
26 | VISCLEQGEEPWVQVSPEFKDSAG [ZNF75A] | 4.59 ± 0.11 | 4.68 ± 0.13 |  | 
27 | SVNISLDNLLPGMQPSKPQQPSLN [CLINT1] | 3.4 ± 0.23 | 3.51 ± 0.16 |  | 
28 | LYYQSQELPNGSVKEAPAPTPTSL [PDZK1] | 3.87 ± 0.27 | 3.93 ± 0.19 |  | 
29 | VSCPEGRADCASESACSSDSLDEA [PWWP2B] | 5.4 ± 0.38 | 5.41 ± 0.42 |  | 
30 | LACRLTPDMETKLLFMTSRVRFGQ [INTS3] | 2.2 ± 0.16 | 2.23 ± 0.22 |  | 
31 | AVIGNFLYVVGGQSNYDTKGKTAV [KLHL13] | 2.38 ± 0.73 | 2.24 ± 0.67 |  | 
32 | EGDTVSQELLDTVLVNLVPAHKNL [PDS5B] | 3.65 ± 0.24 | 3.94 ± 0.34 |  | 
33 | MEALKLQPGLSFLNLGSGTGYLST [PCMTD1] | 2.3 ± 0.2 | 2.31 ± 0.22 |  | 
34 | HFFGDKALKKRSGKKDKHSQSPRA [PBXIP1] | 4.09 ± 0.36 | 4.33 ± 0.45 |  | 
35 | GYRDYGHSRRHESYSRGYSYHDGY [RBMY1A1] | 2.64 ± 0.25 | 2.61 ± 0.45 |  | 
36 | MEEMEEELKCPVCGSFYREPIILP [TRIM9] | 4.05 ± 0.35 | 4.38 ± 0.28 |  | 
37 | CKESSPMPVICGPEENYPSLQMSS [NANOGP8] | 3.65 ± 0.27 | 3.74 ± 0.25 |  | 
38 | AGGGSQENLDNDTETDSLVSAQRE [DVL3] | 5.32 ± 0.21 | 5.65 ± 0.36 |  | 
39 | HINSISVNSDYETYMSADDLRINL [PPP2R2B] | 3.15 ± 0.46 | 3.2 ± 0.54 |  | 
40 | MDDDFGVVKEEISDDNAKLPCFNG [DVL3] | 5.18 ± 0.19 | 5.21 ± 0.15 |  | 
41 | EMRISESAASGARFPLDSAQDPDV [PCDHGC5] | 5.38 ± 0.21 | 5.35 ± 0.16 |  | 
42 | MRDLYMKNGQGFALVYSITAQSTF [RAP1B] | 2.85 ± 0.79 | 2.78 ± 0.6 |  | 
43 | RPQPWLEKEIEEATKKLGFKHPVI [FUT8] | 3.643 ± 0.035 | 3.22 ± 0.37 |  | 
44 | INILQNEKSHQVLAQLLDTLLAIG [INTS4] | 2.43 ± 0.31 | 2.17 ± 0.2 |  | 
45 | TYSLPPFLKAVLRQERVSLYPFQI [CDS1] | 2.19 ± 0.8 | 2.12 ± 0.32 |  | 
46 | PPGSHLLYAKMIQKLADLRSLNEE [VDR] | 2.61 ± 0.11 | 2.67 ± 0.25 |  | 

Row | Sequence | protein stability index [1] | protein stability index [2] | protein stability index (treatment: DMSO, c terminus: native) | protein stability index (treatment: MLN4924 1 uM, 8 h, c terminus: native)
47 | FEEVLSSTAHASAQSLAGGSRRTK [TPD52L1] | 5.16 ± 0.16 | 5.11 ± 0.24 |  | 
48 | HSMHKYQPRIHLVRAAQLCSQHWG [TBX6] | 2.14 ± 0.2 | 2.22 ± 0.3 |  | 
49 | YCNFNKYIPRRLEEAAMQKCLVTE [RSAD1] | 2.32 ± 0.41 | 2.51 ± 0.38 |  | 
50 | SCAGGRLFQQSCPTGLVFSNSCKC [CHIT1] | 2.98 ± 0.17 | 3.05 ± 0.24 |  | 
51 | PFVCPECGQPCSQKSGLIRHQKIH [ZNF649] | 4.65 ± 0.3 | 4.78 ± 0.3 |  | 
52 | LSLHVKSLGASPTVAGIVGSSYGI [MFSD9] | 2.71 ± 0.93 | 2.42 ± 0.38 |  | 
53 | DGNLCLHVPNPPSGISFPSVVDHP [HESX1] | 3.73 ± 0.5 | 3.78 ± 0.15 |  | 
54 | ILFLPCLRKKILKIRHGWEDVTKI [STEAP1] | 2.95 ± 0.39 | 2.46 ± 0.42 |  | 
55 | AAGVFSNPAVRTAAANAAAGAAEN [SCAMP3] | 5.03 ± 0.1 | 5.06 ± 0.23 |  | 
56 | NSPGAYRSHPDNAIPIKSWFSDPS [CTDNEP1] | 3.37 ± 0.23 | 3.4 ± 0.12 |  | 
57 | MAAMETETAPLTLESLPTDPLLLI [FBXO3] | 3.44 ± 0.25 | 3.43 ± 0.18 |  | 
58 | KHFKVQLVDNVYCIGQRRFHTMDE [NCK2] | 2.48 ± 0.16 | 2.44 ± 0.37 |  | 
59 | QFCAQRFGRKDHLTRHTKKTHSQE [PLAGL1] | 4.07 ± 0.43 | 4.18 ± 0.27 |  | 
60 | LRLEGLLCDVTLMPGDTDDAFPVH [KLHL13] | 2.42 ± 0.24 | 2.48 ± 0.35 |  | 
61 | PGEQGGGKLVLSSLPKRLCLVCGD [ESRRA] | 2.79 ± 0.19 | 3.25 ± 0.29 |  | 
62 | TKVGGTNPNGGSFEEVLSSTAHAS [TPD52L1] | 4.78 ± 0.26 | 4.69 ± 0.26 |  | 
63 | FIYSLKQMLLNVEANSAKVQEDLE [FSD1] | 2.55 ± 0.16 | 2.38 ± 0.28 |  | 
64 | KLERIARLEDKVKTLKAENAGLSS [JUNB] | 3.85 ± 0.34 | 3.97 ± 0.22 |  | 
65 | MAGLSKEPNTLRAPRVRTAFTMEQ [VENTX] | 3.54 ± 0.28 | 3.75 ± 0.22 |  | 
66 | RGSRGAPPPLGPVVPVLVFPPDLV [MOSPD3] | 2.67 ± 0.05 | 2.96 ± 0.22 |  | 
67 | PVSLSASQSWHTESLPVSLGPESW [BCL2L13] | 3.37 ± 0.26 | 3.21 ± 0.11 |  | 
68 | ARDCFATGRHYWEVDVQEAGAGWW [TRIM14] | 2.42 ± 0.22 | 2.41 ± 0.3 |  | 
69 | VYTRHGVPISVTGIAQVKIQGQNK [FLOT1] | 2.72 ± 0.12 | 2.63 ± 0.39 |  | 

Row | Sequence | protein stability index [1] | protein stability index [2] | protein stability index (treatment: DMSO, c terminus: native) | protein stability index (treatment: MLN4924 1 uM, 8 h, c terminus: native)
70 | IQRIRSEIENVKKQASNLETAIAD [KRT71] | 4.42 ± 0.29 | 4.61 ± 0.31 |  | 
71 | TPISNEVEMESEEQIAERKRKMVS [KMT2E] | 5.02 ± 0.36 | 5.05 ± 0.18 |  | 
72 | VLNPHPSLGYKEIRKGESRSEALA [CHGA] | 4.14 ± 0.19 | 4.5 ± 0.3 |  | 
73 | TKNKELTDEFRELRATVERMGLMK [FADS1] | 3.71 ± 0.37 | 3.55 ± 0.27 |  | 
74 | VDGAGKPGAEEAQDPEGKGEQEHS [CHGA] | 5.56 ± 0.18 | 5.3 ± 0.11 |  | 
75 | IRTANCTTANQNCVNKSKLLTDV [KCNA1] |  |  | 3.19 ± 0.13 | 3.35 ± 0.28
76 | LSFSDALLSIIATVMILPVTHTEI [TMEM175] | 3.15 ± 0.29 | 2.88 ± 0.58 |  | 
77 | EAQISDPFAPEPTPPTTTAEIATA [SNAP91] | 5.42 ± 0.28 | 5.46 ± 0.13 |  | 
78 | NMERIMKAQALRDNSTMGYMMAKK [HSP90AB1] | 3.38 ± 0.19 |  |  | 
79 | IPYNAKFLGSTEVEQPKGTEVVRD [GULP1] | 4.7 ± 0.44 | 4.69 ± 0.23 |  | 
80 | ALLLGQGANINAQTEETQETALTL [ANKRD17] | 4.17 ± 0.32 | 4.32 ± 0.27 |  | 
81 | MSPGDCPPETTETPKCSSPRGQEG [YJU2B] | 5.44 ± 0.43 | 5.5 ± 0.11 |  | 
82 | QRDSKRWSRLEEFDVFSPKQDLVP [DLC1] | 3.63 ± 0.13 | 3.8 ± 0.21 |  | 
83 | KQQNVAHCMLVSNRVSWWGSTLAM [ZBED1] | 2.19 ± 0.37 | 2.03 ± 0.31 |  | 
84 | TSCKLTDLRGVCVSGKCEPIGCDG [ADAMTSL2] | 3.4 ± 0.12 | 3.28 ± 0.27 |  | 
85 | RRQQAKLKELQAIAERLGCTLPQL [KCNAB2] | 2.99 ± 0.17 | 3.19 ± 0.3 |  | 
86 | AESKGTGREKPGPLDFEAYSAAAL [FCHO1] | 4.8 ± 0.12 | 5.04 ± 0.22 |  | 
87 | DPELKNLFDMCGISEAQLKDRETS [WASL] | 4.72 ± 0.063 | 4.68 ± 0.21 |  | 
88 | MSGQTLTDRIAAAQYSVTGSAVAR [SNAP91] | 4 ± 0.19 | 3.98 ± 0.2 |  | 
89 | LQISEELLSRNQLSTAASLGPSGL [LCOR] | 3.5 ± 0.14 | 3.35 ± 0.41 |  | 
